Test: Isoelectric point of expressed clathrin heavy chain preparation
Assay type: physicochemical
Details: recombinant human clathrin isoform 2 heavy chain with 6His tag from E. coli
Source text: The preparation yielded a protein with the following characteristics: […]

PE1130119-1: Clathrin human isoform 2 heavy chain expressed in E. coli, soluble protein with 6His tag
Isoelectric Point: 5.67
